Data taken from PMC11117473 (2024).
Ends that are not written are not given here.

How the values were obtained:
Assay in all cases: fluorescence polarization
NCOA1 NR2 peptide [1] = biological target: T1, NCOA1 NR2 peptide (Homo sapiens)
T1 chain: Fluorescein-LTARHKILHRLLQEGSPSD

NCOA1 NR2 peptide [2] = biological target: T2, NCOA1 NR2 peptide (Homo sapiens)
T2 chain: Fluorescein-LTARHKILHRLLQEGSPSD

NCOA1 NR2 peptide [3] = biological target: T3, NCOA1 NR2 peptide (Homo sapiens)
T3 chain: Fluorescein-LTARHKILHRLLQEGSPSD

B1: VDR LBD 156-453 (protein)
chain: LSDEQMQIINSLVEAHHKTYDDSYSDFVRFRPPVREGPVTRSASRAASLHSLSDASSDSFNHSPESVDTKLNFSNLLMMYQDSGSPDSSEEDQQSRLSMLPHLADLVSYSIQKVIGFAKMIPGFRDLTAEDQIALLKSSAIEIIMLRSNQSFSLEDMSWSCGGPDFKYCINDVTKAGHTLELLEPLVKFQVGLKKLKLHEEEHVLLMAICLLSPDRPGVQDHVRIEALQDRLCDVLQAYIRIQHPGGRLLYAKMIQKLADLRSLNEEHSKQYRSLSFQPEHSMQLTPLVLEVFGSEVS
**Q.** How did the Kd (NCOA1 NR2 peptide [1]) turn out when B1 was run?
**A.** 480 nM

**Q.** What about the Kd (NCOA1 NR2 peptide [2]) of the same binder?
**A.** 540 nM

**Q.** And the Kd (NCOA1 NR2 peptide [3])?
**A.** 500 nM
